Results reported in patent publication US20050064507.

Key:
[1] = test system: T1, CREB1 peptide EILSRRPSYRKILND (SEQ ID NO:106)
T1 sequence: EILSRRPSYRKILND

[2] = test system: T2, KCNH2 peptide RQRKRKLSFRRRTDKD (SEQ ID NO:86)
T2 sequence: RQRKRKLSFRRRTDKD

[3] = test system: T3, LIMK-2 peptide LRRRSLRRSNSISKSPGP (SEQ ID NO:121)
T3 sequence: LRRRSLRRSNSISKSPGP

[4] = test system: T4, LIMK2 peptide KATTKKRTLRKNDRK (SEQ ID NO:108)
T4 sequence: KATTKKRTLRKNDRK

[5] = test system: T5, MARCKS peptide KKKKKRFSFKKSFKL (SEQ ID NO:80)
T5 sequence: KKKKKRFSFKKSFKL

[6] = test system: T6, MARCKS peptide KKKRFSFKKSFKLSGFSFKK (SEQ ID NO:111)
T6 sequence: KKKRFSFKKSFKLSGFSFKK

[7] = test system: T7, MARCKS peptide PSPSNETPKKKKKRFSFKKS (SEQ ID NO:157)
T7 sequence: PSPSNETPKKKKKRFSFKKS

[8] = test system: T8, MGC2941 peptide RPTPGDGEKRSRIKKSKKRK (SEQ ID NO:139)
T8 sequence: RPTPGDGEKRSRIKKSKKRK

[9] = test system: T9, PKD1 peptide RVVQSVKHTKRKSSTVMK (SEQ ID NO:149)
T9 sequence: RVVQSVKHTKRKSSTVMK

[10] = test system: T10, PSCD2 peptide AARKKRISVKKKQEQ (SEQ ID NO:93)
T10 sequence: AARKKRISVKKKQEQ

[11] = test system: T11, beta adducin peptide PSKSPSKKKKKFRTPSFLKK (SEQ ID NO:137)
T11 sequence: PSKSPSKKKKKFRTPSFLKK

[12] = test system: T12, calcium channel, voltage-dependent, L type, alpha peptide RDIRQSPKRGFLRSASLGRR (SEQ ID NO:147)
T12 sequence: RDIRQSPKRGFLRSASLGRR

[13] = test system: T13, dag kinase iota peptide PQNSLKASNRKKKRTSFKRK (SEQ ID NO:151)
T13 sequence: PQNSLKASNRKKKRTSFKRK

[14] = test system: T14, fit1 peptide VQMTWSYPDEKNKRASVRRR (SEQ ID NO:158)
T14 sequence: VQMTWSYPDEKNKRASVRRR

[15] = test system: T15, kinesin 3C peptide LEKRGMLGKRPRRKSSRRKK (SEQ ID NO:133)
T15 sequence: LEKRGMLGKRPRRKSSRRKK

[16] = test system: T16, nuclear RNA export factor 3 peptide VRYTPYTISPYNRKGSFRKQ (SEQ ID NO:143)
T16 sequence: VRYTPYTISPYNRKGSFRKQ

[17] = test system: T17, peptide AQIVKRASLKRGKQ (SEQ ID NO:10)
T17 sequence: XXPPGAQIVKRASLKRGKQ

[18] = test system: T18, peptide AWVTVHEKKSSRKSEYL (SEQ ID NO:43)
T18 sequence: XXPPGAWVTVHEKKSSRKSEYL

[19] = test system: T19, peptide DDMEHKTLKITDFG (SEQ ID NO:55)
T19 sequence: XXPPGDDMEHKTLKITDFG

[20] = test system: T20, peptide DGQKRKKSLRKKLD (SEQ ID NO:16)
T20 sequence: XXPPGDGQKRKKSLRKKLD

[21] = test system: T21, peptide DLLGKKVSTKTLSEDD (SEQ ID NO:51)
T21 sequence: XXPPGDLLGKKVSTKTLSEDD

[22] = test system: T22, peptide EILSRRPSYRKILND (SEQ ID NO:25)
T22 sequence: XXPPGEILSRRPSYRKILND

[23] = test system: T23, peptide ENLRKVTTDKKSLAY (SEQ ID NO:54)
T23 sequence: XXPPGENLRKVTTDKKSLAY

[24] = test system: T24, peptide GQAWGRQSPRRLED (SEQ ID NO:46)
T24 sequence: XXPPGGQAWGRQSPRRLED

[25] = test system: T25, peptide KKKKRASFKRKSSKKG (SEQ ID NO:2)
T25 sequence: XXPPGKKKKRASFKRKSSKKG

[26] = test system: T26, peptide LLGSGKVTDRKAL (SEQ ID NO:39)
T26 sequence: XXPPGLLGSGKVTDRKAL

[27] = test system: T27, peptide LRRKHLGTLNFGGIR (SEQ ID NO:60)
T27 sequence: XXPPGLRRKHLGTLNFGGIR

[28] = test system: T28, peptide NYLRRRLSDSNFMAN (SEQ ID NO:38)
T28 sequence: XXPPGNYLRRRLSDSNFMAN

[29] = test system: T29, peptide PVNKRSKYTMMK (SEQ ID NO:59)
T29 sequence: XXPPGPVNKRSKYTMMK

[30] = test system: T30, peptide QKKSRLRRRASQLKI (SEQ ID NO:9)
T30 sequence: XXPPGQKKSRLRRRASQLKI

[31] = test system: T31, peptide QKRHARVTVKYDRRE (SEQ ID NO:23)
T31 sequence: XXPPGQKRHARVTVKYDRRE

[32] = test system: T32, peptide QPEGLRSLKKPDRKKR (SEQ ID NO:42)
T32 sequence: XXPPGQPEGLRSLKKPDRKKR

[33] = test system: T33, peptide QQKIRKYTMRRLLQE (SEQ ID NO:33)
T33 sequence: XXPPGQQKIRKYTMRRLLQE

[34] = test system: T34, peptide QRQERIFSKRRGQDF (SEQ ID NO:63)
T34 sequence: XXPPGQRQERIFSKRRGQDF

[35] = test system: T35, peptide RGEGHKPSIAHRDFK (SEQ ID NO:68)
T35 sequence: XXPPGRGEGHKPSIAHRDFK

[36] = test system: T36, peptide RGFLRSASLGRRASFHLE (SEQ ID NO:15)
T36 sequence: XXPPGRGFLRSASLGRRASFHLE

[37] = test system: T37, peptide RKNDRKKRYTVVGNP (SEQ ID NO:29)
T37 sequence: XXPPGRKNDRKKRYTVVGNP

[38] = test system: T38, peptide RQRKRKLSFRRRTDKD (SEQ ID NO:5)
T38 sequence: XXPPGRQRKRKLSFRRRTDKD

[39] = test system: T39, peptide VFREHQRSGSYHVRE (SEQ ID NO:45)
T39 sequence: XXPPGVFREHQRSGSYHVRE

[40] = test system: T40, peptide VLAKKGTSKTPVPE (SEQ ID NO:44)
T40 sequence: XXPPGVLAKKGTSKTPVPE

[41] = test system: T41, pkc-zeta peptide GLPAPGEDKSIYRRGSRRWR (SEQ ID NO:167)
T41 sequence: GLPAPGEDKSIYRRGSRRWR

For PKC-delta, the in vitro phosphorylation (% of best substrate) [1] was 9, the in vitro phosphorylation (% of best substrate) [2] was 42 and the in vitro phosphorylation, 1 uM peptide (% of best substrate) [3] was 80. It also gave an in vitro phosphorylation, 10 uM peptide (% of best substrate) [3] of 53, an in vitro phosphorylation (% of best substrate) [4] of 6 and an in vitro phosphorylation (% of best substrate) [5] of 24. For the same substance, the in vitro phosphorylation (% of best substrate) [6] was 16, the in vitro phosphorylation, 1 uM peptide (% of best substrate) [7] was 27 and the in vitro phosphorylation, 10 uM peptide (% of best substrate) [7] was 35. The in vitro phosphorylation, 1 uM peptide (% of best substrate) [8] was 31, the in vitro phosphorylation, 10 uM peptide (% of best substrate) [8] was 24 and the in vitro phosphorylation, 1 uM peptide (% of best substrate) [9] was 20. For the same substance, the in vitro phosphorylation, 10 uM peptide (% of best substrate) [9] was 17, the in vitro phosphorylation (% of best substrate) [10] was 35 and the in vitro phosphorylation, 1 uM peptide (% of best substrate) [11] was 38. For the same substance, the in vitro phosphorylation, 10 uM peptide (% of best substrate) [11] was 16, the in vitro phosphorylation, 1 uM peptide (% of best substrate) [12] was 27 and the in vitro phosphorylation, 10 uM peptide (% of best substrate) [12] was 13. The in vitro phosphorylation, 1 uM peptide (% of best substrate) [13] was 27, the in vitro phosphorylation, 10 uM peptide (% of best substrate) [13] was 37 and the in vitro phosphorylation, 1 uM peptide (% of best substrate) [14] was 18. For the same substance, the in vitro phosphorylation, 10 uM peptide (% of best substrate) [14] was 33, the in vitro phosphorylation, 1 uM peptide (% of best substrate) [15] was 46 and the in vitro phosphorylation, 10 uM peptide (% of best substrate) [15] was 52. It also gave an in vitro phosphorylation, 1 uM peptide (% of best substrate) [16] of 33, an in vitro phosphorylation, 10 uM peptide (% of best substrate) [16] of 32 and an in vitro phosphorylation (% of best substrate) [17] of 32. The in vitro phosphorylation (% of best substrate) [18] was 3, the in vitro phosphorylation (% of best substrate) [19] was 2 and the in vitro phosphorylation (% of best substrate) [20] was 17. It also gave an in vitro phosphorylation (% of best substrate) [21] of 2, an in vitro phosphorylation (% of best substrate) [22] of 9 and an in vitro phosphorylation (% of best substrate) [23] of 2. For the same substance, the in vitro phosphorylation (% of best substrate) [24] was 2, the in vitro phosphorylation (% of best substrate) [25] was 76 and the in vitro phosphorylation (% of best substrate) [26] was 3. The in vitro phosphorylation (% of best substrate) [27] was 1, the in vitro phosphorylation (% of best substrate) [28] was 3 and the in vitro phosphorylation (% of best substrate) [29] was 1. For the same substance, the in vitro phosphorylation (% of best substrate) [30] was 34, the in vitro phosphorylation (% of best substrate) [31] was 10 and the in vitro phosphorylation (% of best substrate) [32] was 3. For the same substance, the in vitro phosphorylation (% of best substrate) [33] was over 5, the in vitro phosphorylation (% of best substrate) [34] was 1 and the in vitro phosphorylation (% of best substrate) [35] was 1. It also gave an in vitro phosphorylation (% of best substrate) [36] of 18, an in vitro phosphorylation (% of best substrate) [37] of 8 and an in vitro phosphorylation (% of best substrate) [38] of 42. For the same substance, the in vitro phosphorylation (% of best substrate) [39] was 2, the in vitro phosphorylation (% of best substrate) [40] was 2 and the in vitro phosphorylation, 1 uM peptide (% of best substrate) [41] was 13. For the same substance, the in vitro phosphorylation, 10 uM peptide (% of best substrate) [41] was 24.
